US20140249468

Measured: fluorescence activation (recovery of Cy5.5 fluorescence on cleavage)

activated recombinant human MMP-13
>25-fold vs. without MMP: MMP-P0 | MMP-P12 | MMP-P24 | MMP-P4 | MMP-P67
